We go through 4 molecules from paper PMC11053023 (Nature Communications, 2024).

A value given as a limit tells only on which side of the number the result lay.

The target in assay [1] is T1, FEM1B-EB-EC ternary complex with FEM1B D356A/V391A/Q394A/F501A/H502A (human, UniProt Q9UK73 1-627; Q15370 1-118; Q15369 17-112, D356A | V391A | Q394A | F501A | H502A).
T1 construct: FEM1B, human, full length, quintuple mutant of the aromatic (psi) pocket; elongin B (EB, ELOB), human; elongin C (EC, ELOC), human; also called 5A mutant; FEM1BFL-EB-EC D356A/V391A/Q394A/F501A/H502A; source: E. coli BL21(DE3), purified in the same way as the WT protein; copies: + +
The assay is described as follows: ITC; SUMO fusion peptides (0.5-1 mM) titrated into 50 μM FEM1B-EB-EC in the cell, 25 °C, 20 mM Tris, 200 mM NaCl, pH 7.5, 1 mM EDTA; one-site binding model. Particulars: both partners purified.

Assay [2] deals with T2, FEM1B-EB-EC ternary complex (human, UniProt Q9UK73 1-627; Q15370 1-118; Q15369 17-112).
T2 construct: FEM1B, human, full-length (FEM1B^FL); elongin B (EB, ELOB), human; elongin C (EC, ELOC), human; written as one protomer; also called FEM1B-elongin B-elongin C; FEM1B-ELOB-ELOC; source: E. coli BL21(DE3), co-expressed, purified (Ni-NTA, SEC); copies: + +
The assay is described as follows: ITC; peptides (0.5-1 mM) titrated into 50 μM protein in the cell, 25 °C; 20 mM Tris, 200 mM NaCl, pH 7.5, 1 mM EDTA; one-site binding model. Particulars: both partners purified.

B1: SUMO-(GGGS)2-CDK5R1 285-307 WT (peptide)
chain: VFSDLKNESGQEDKKRLLLGLDR
notes: CDK5R1, human, C-terminal 23 residues; also called CDK5R1 23-mer; 23-aa CDK5R1 C-degron; source: E. coli BL21(DE3), purified (Ni-NTA; SEC for ITC); not shown: SUMO with (GGGS)2 linker, N-terminal, kept
As to B1, in assay [1], the Kd is 5.7 ± 0.8 µM and the “stoichiometry N” value was found to be 0.16.
Turning to KAADHLHKFHENDNGAAAGDLWQ [CUX1 C-degron F-22A, SUMO fusion], the dissociation constant (Kd) in assay [2] was over 500 µM.
In assay [2], KKHSLDLLLRHLSP [CCDC89 C-degron variant with deletion of nine residues in the linker region] showed a Kd of over 50 µM.

B2: SUMO-(GGGS)2-CDK5R1 298-307 WT (peptide)
chain: KKRLLLGLDR
notes: CDK5R1, human, C-terminal 10 residues; also called CDK5R1 10-mer; 10-aa CDK5R1 C-degron; source: E. coli BL21(DE3), purified (Ni-NTA; SEC for ITC); not shown: SUMO with (GGGS)2 linker, N-terminal, kept
For B2, in assay [1], the “stoichiometry N” value was determined as 0.46.
